Where two headings read alike, the source gives them in different places.

Assay [1] deals with T4 capsid (empty head isolated from 10-amber 13-amber hoc-del soc-del T4 phage-infected E. coli) (bacteriophage T4) (UniProt P04535).
The target is the same in assay [2]. Put plainly: copies displayed per T4 capsid, Soc-RGD against RGD-Hoc.
Assay [3] shares this target. Put plainly: in vitro display on T4 heads, sedimentation, SDS-PAGE densitometry with gp23* as internal control.
For assay [4] the target is unchanged. Put plainly: display on T4 capsids at increasing ratios, SDS-PAGE (FIG. 20).
Assay [5] shares this target. Kind of assay: Soc-TAT displayed on T4(Luci) capsids used for transduction (FIG. 28).
For assay [6] the target is unchanged. Kind of assay: Cas9-Soc in complex with siRNA displayed on T4 capsid.
The target is the same in assay [7]. Kind of assay: Cas9-Soc in complex with gRNA displayed on T4 capsid.
For assay [8] the target is unchanged. Kind of assay: Cas9-Soc-gRNA RNP co-displayed with Cre-Hoc on the same T4 capsid.
Assay [9] has the same target. Kind of assay: Cre-Hoc co-displayed with Cas9-Soc-gRNA RNP on the same T4 capsid.
Assay [10] has the same target. Kind of assay: display on T4 capsids at increasing ratios, SDS-PAGE (FIG. 21).

On to Soc-RGD (from UniProt P03715 1-80), for which, in assay [1], the Copies/ capsid (copies per capsid) turned out to be 710. The substance also showed a fold copy number against RGD-Hoc in assay [2] of 8.3 fold. For “RGD-Hoc (SEQ ID NO: 19) (from UniProt P18056 1-376)”, the Copies/ capsid (copies per capsid) in assay [3] came out at 85.

In turn, “β-Gal-Soc (from UniProt P00722 2-1024; P03715 1-80) (enzyme)” yielded a Copies/ capsid (copies per capsid) in assay [1] of 320. For the same substance, the ratio of protein molecules to binding sites at saturation (molecules per binding site) in assay [4] lay within 15 to 20.

As for Soc-TAT (from UniProt P03715 1-80), the Copies/ capsid (copies per capsid) in assay [1] stood at 750. In [5], this substance yielded a copies per capsid (copies per capsid) of 520. Turning to “Cas9-Soc (SEQ ID NO: 16) (from UniProt Q99ZW2 1-1368)”, the copies per capsid (copies per capsid) in assay [6] and in [7] was 280 each time. Further, the Copies/ capsid (copies per capsid) in assay [1] came out at 550. In assay [8], this substance came in with a molecules per AV (molecules per capsid) of 270. Turning to GFP-Soc (from UniProt P03715 1-80), the Copies/ capsid (copies per capsid) in assay [1] is 660. For Cre-Soc (SEQ ID NO: 22), in assay [1], the Copies/ capsid (copies per capsid) stood at 630. Cpf1-Soc (SEQ ID NO: 17) came in with a Copies/ capsid (copies per capsid) in assay [3] of 450. Consider Cre-Hoc (SEQ ID NO: 18), for which the Copies/ capsid (copies per capsid) in assay [1] was found to be 95. The same substance had a molecules per AV (molecules per capsid) in [9] of 50. Moreover, the ratio of protein molecules to binding sites at saturation (molecules per binding site) in assay [10] lay in the range of 15 to 20.

(Values after EP4371564A2.)
